In patent US20230295324A1:

Assays:
[1] = biological target: human OX40 on cells (CHO-K1/hu OX40) (human) (UniProt P43489); assay: cell-based or functional assay
[2] = biological target: human OX40 on cells (CHO-K1/hu OX40) (human) (UniProt P43489); assay: FACS, blocking of biotin-human OX40L on CHO-K1/hu OX40 cells
[3] = biological target: human OX40 on cells (CHO-K1/hu OX40) (human) (UniProt P43489); assay: FACS, CHO-K1/hu OX40 cells

human OX40 on cells (CHO-K1/hu OX40) (human), sequence (P43489 29-277): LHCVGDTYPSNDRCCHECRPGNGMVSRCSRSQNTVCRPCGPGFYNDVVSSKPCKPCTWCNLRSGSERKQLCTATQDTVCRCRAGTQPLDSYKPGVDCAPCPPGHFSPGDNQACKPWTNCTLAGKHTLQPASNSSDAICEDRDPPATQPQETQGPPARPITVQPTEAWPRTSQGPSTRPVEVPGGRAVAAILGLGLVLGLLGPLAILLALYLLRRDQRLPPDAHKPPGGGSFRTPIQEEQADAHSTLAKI

B1: PR002075 (antibody, human IgG1, V domains shown)
VH: EVQLVETGGGLIQPGGSLRLSCAASGFTFSSYAMSWVRQAPGKGLEWVSAISGSGGNTYYADSVRGRFTISRDNSKNTLYLQMNSLRAEDTAVYYCANGITGTTDVDYWGQGTRVTVSS
- EC50, HEK293/OX40/NF-kb luciferase reporter [1]: 136 nM
- Maximum fluorescence signal value, HEK293/OX40/NF-kb luciferase reporter [1]: 140000 luminescence
- Maximum inhibition rate (%) [2]: 0%
- Maximum MFI [3]: 501 MFI
